IntAct's records for PubMed 20030366

Tests used:
amrp_human LRPAP1 [1] = target: amrp_human LRPAP1 (UniProt P30533)
apoe_human APOE = apoe_human APOE (UniProt P02649)
amrp_human LRPAP1 [2] = target: amrp_human LRPAP1 (UniProt P30533); remark: listed apart in the source

Chain of amrp_human LRPAP1 (P30533 whole entry): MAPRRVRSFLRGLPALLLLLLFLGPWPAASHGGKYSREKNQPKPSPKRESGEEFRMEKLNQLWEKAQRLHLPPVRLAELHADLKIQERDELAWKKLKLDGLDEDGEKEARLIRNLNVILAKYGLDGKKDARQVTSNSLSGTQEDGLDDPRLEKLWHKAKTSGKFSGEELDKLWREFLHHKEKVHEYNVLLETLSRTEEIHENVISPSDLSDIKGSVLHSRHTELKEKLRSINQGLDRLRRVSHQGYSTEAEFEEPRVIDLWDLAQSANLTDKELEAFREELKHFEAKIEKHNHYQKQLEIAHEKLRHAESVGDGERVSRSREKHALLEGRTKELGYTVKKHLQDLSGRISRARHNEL
Chain of apoe_human APOE (P02649 whole entry): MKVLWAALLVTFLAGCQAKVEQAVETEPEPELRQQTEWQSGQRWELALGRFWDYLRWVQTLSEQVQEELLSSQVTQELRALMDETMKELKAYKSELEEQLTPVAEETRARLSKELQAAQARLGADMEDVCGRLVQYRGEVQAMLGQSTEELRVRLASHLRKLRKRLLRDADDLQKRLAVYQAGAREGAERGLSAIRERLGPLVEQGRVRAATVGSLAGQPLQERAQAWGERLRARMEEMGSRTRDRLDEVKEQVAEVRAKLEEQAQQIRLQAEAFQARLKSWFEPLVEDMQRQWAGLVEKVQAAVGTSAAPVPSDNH

Row | Substance | effect of a mutation on the interaction (amrp_human LRPAP1 [1]) | effect of a mutation on the interaction (apoe_human APOE) | effect of a mutation on the interaction (amrp_human LRPAP1 [2])
1 | Prolow-density lipoprotein receptor-related protein 1 (Homo sapiens), Q07954 D2797A | decreasing interaction strength | decreasing interaction strength | –
2 | Prolow-density lipoprotein receptor-related protein 1 (Homo sapiens), Q07954 D2797A;D2840A | – | – | decreasing interaction strength
